{"source": "the supplement of paper PMC10567573", "parents": {"B1": {"name": "CIB1 (parent)", "chain": "DLSRLVNCLTGEGEDTRLSASEMK"}}}
{"variants_of": "B1", "assay": "protein stability index of a GFP-peptide fusion (GPS, HEK-293T) (PSI 1-6); higher = more stable", "details": "c terminus: a fixed tail appended"}
{"variant": "V6D", "protein stability index": 4.1}
{"variant": "V6S", "protein stability index": 2.6}
{"variant": "V6Q", "protein stability index": 2.64}
{"variant": "V6G", "protein stability index": 2.36}
{"variant": "V6M", "protein stability index": 3.61}
{"variant": "V6C", "protein stability index": 3.96}
{"variant": "V6I", "protein stability index": 3.25}
{"variant": "V6P", "protein stability index": 4.84}
{"variant": "V6L", "protein stability index": 3.68}
{"variant": "V6N", "protein stability index": 4.04}
{"variant": "V6W", "protein stability index": 2.64}
{"variant": "V6T", "protein stability index": 3.08}
{"variant": "V6E", "protein stability index": 2.91}
{"variant": "V6R", "protein stability index": 3.94}
{"variant": "L5R", "protein stability index": 2.87}
{"variant": "L5D", "protein stability index": 4.39}
{"variant": "L5K", "protein stability index": 4.53}
{"variant": "L5C", "protein stability index": 3.35}
{"variant": "L5P", "protein stability index": 5.06}
{"variant": "L5A", "protein stability index": 3.99}
{"variant": "L5T", "protein stability index": 3.61}
{"variant": "L5Y", "protein stability index": 2.27}
{"variant": "L5G", "protein stability index": 5}
{"variant": "L5Q", "protein stability index": 4.54}
{"variant": "L5V", "protein stability index": 4}
{"variant": "L5F", "protein stability index": 2.49}
{"variant": "L5H", "protein stability index": 3.23}
{"variant": "C8P", "protein stability index": 4.28}
{"variant": "C8M", "protein stability index": 3.52}
{"variant": "C8A", "protein stability index": 3.09}
{"variant": "C8F", "protein stability index": 2.46}
{"variant": "C8D", "protein stability index": 4.3}
{"variant": "C8V", "protein stability index": 3.27}
{"variant": "C8I", "protein stability index": 2.4}
{"variant": "C8S", "protein stability index": 3.63}
{"variant": "C8H", "protein stability index": 2.81}
{"variant": "C8E", "protein stability index": 3.42}
{"variant": "C8Q", "protein stability index": 3.95}
{"variant": "C8G", "protein stability index": 3.77}
{"variant": "C8Y", "protein stability index": 2.34}
{"variant": "C8N", "protein stability index": 3.02}
{"variant": "C8L", "protein stability index": 2.21}
{"variant": "C8K", "protein stability index": 1.43}
{"variant": "G13W", "protein stability index": 2.4}
{"variant": "G13T", "protein stability index": 3.16}
{"variant": "G13I", "protein stability index": 3.55}
{"variant": "G13Q", "protein stability index": 2.54}
{"variant": "G13C", "protein stability index": 2.94}
{"variant": "G13P", "protein stability index": 3.03}
{"variant": "G13A", "protein stability index": 3.62}
{"variant": "G13S", "protein stability index": 3.97}
{"variant": "G13H", "protein stability index": 3.31}
{"variant": "G13R", "protein stability index": 2.89}
{"variant": "G13Y", "protein stability index": 3.02}
{"variant": "G13L", "protein stability index": 2.53}
{"variant": "G13V", "protein stability index": 2.65}
{"variant": "G13M", "protein stability index": 2.76}
{"variant": "G13K", "protein stability index": 3.45}
{"variant": "G13E", "protein stability index": 3.07}
{"variant": "G13N", "protein stability index": 2.71}
{"variant": "G11R", "protein stability index": 2.9}
{"variant": "G11T", "protein stability index": 2.6}
{"variant": "G11E", "protein stability index": 3.98}
{"variant": "G11W", "protein stability index": 2.34}
{"variant": "G11L", "protein stability index": 2.88}
{"variant": "G11K", "protein stability index": 3.49}
{"variant": "G11M", "protein stability index": 2.84}
{"variant": "G11Y", "protein stability index": 2.67}
{"variant": "G11C", "protein stability index": 3.16}
{"variant": "G11I", "protein stability index": 3}
{"variant": "G11F", "protein stability index": 3.35}
{"variant": "G11S", "protein stability index": 3.55}
{"variant": "G11N", "protein stability index": 3.7}
{"variant": "G11H", "protein stability index": 3.81}
{"variant": "G11Q", "protein stability index": 3.03}
{"variant": "T10D", "protein stability index": 3.27}
{"variant": "T10A", "protein stability index": 3.49}
{"variant": "T10K", "protein stability index": 2.9}
{"variant": "T10G", "protein stability index": 2.92}
{"variant": "T10C", "protein stability index": 4.11}
{"variant": "T10V", "protein stability index": 3.38}
{"variant": "T10F", "protein stability index": 2.77}
{"variant": "T10Y", "protein stability index": 1.99}
{"variant": "T10E", "protein stability index": 3.39}
{"variant": "T10S", "protein stability index": 3.17}
{"variant": "T10R", "protein stability index": 2.15}
{"variant": "T10L", "protein stability index": 2.44}
{"variant": "T10P", "protein stability index": 2.44}
{"variant": "T10Q", "protein stability index": 3.61}
{"variant": "T10H", "protein stability index": 3.94}
{"variant": "T10M", "protein stability index": 2.11}
{"variant": "T10W", "protein stability index": 2.48}
{"variant": "T10I", "protein stability index": 2.68}
{"variant": "N7I", "protein stability index": 2.59}
{"variant": "N7S", "protein stability index": 3.63}
{"variant": "N7L", "protein stability index": 3.85}
{"variant": "N7G", "protein stability index": 2.74}
{"variant": "N7A", "protein stability index": 3.12}
{"variant": "N7T", "protein stability index": 2.62}
{"variant": "N7R", "protein stability index": 3.09}
{"variant": "N7E", "protein stability index": 4}
{"variant": "N7D", "protein stability index": 4.32}
{"variant": "N7W", "protein stability index": 2.2}
{"variant": "N7K", "protein stability index": 2.84}
{"variant": "N7M", "protein stability index": 2.09}
{"variant": "N7P", "protein stability index": 4.6}
{"variant": "L9T", "protein stability index": 3.02}
{"variant": "L9H", "protein stability index": 3.78}
{"variant": "L9S", "protein stability index": 2.62}
{"variant": "L9Y", "protein stability index": 3.32}
{"variant": "L9F", "protein stability index": 3.35}
{"variant": "L9I", "protein stability index": 3.04}
{"variant": "L9Q", "protein stability index": 3.25}
{"variant": "L9V", "protein stability index": 4.17}
{"variant": "L9M", "protein stability index": 4.05}
{"variant": "L9N", "protein stability index": 4.24}
{"variant": "L9A", "protein stability index": 1.75}
{"variant": "L9D", "protein stability index": 3.23}
{"variant": "L9E", "protein stability index": 3.09}
{"variant": "L9R", "protein stability index": 2.54}
{"variant": "L9P", "protein stability index": 2.87}
{"variant": "E14L", "protein stability index": 2.27}
{"variant": "E14C", "protein stability index": 3.36}
{"variant": "E14I", "protein stability index": 2.6}
{"variant": "E14Q", "protein stability index": 3.53}
{"variant": "E14N", "protein stability index": 3.06}
{"variant": "E14P", "protein stability index": 2.17}
{"variant": "E14Y", "protein stability index": 2.83}
{"variant": "E14R", "protein stability index": 2.34}
{"variant": "E14M", "protein stability index": 2.06}
{"variant": "E14F", "protein stability index": 2.2}
{"variant": "E14H", "protein stability index": 3.05}
{"variant": "E14D", "protein stability index": 1.66}
{"variant": "E14T", "protein stability index": 3.41}
{"variant": "E14K", "protein stability index": 2.94}
{"variant": "E14A", "protein stability index": 2.37}
{"variant": "E12T", "protein stability index": 1.85}
{"variant": "E12R", "protein stability index": 2.4}
{"variant": "E12K", "protein stability index": 3.29}
{"variant": "E12W", "protein stability index": 2.05}
{"variant": "E12G", "protein stability index": 1.18}
{"variant": "E12P", "protein stability index": 3.04}
{"variant": "E12H", "protein stability index": 2.92}
{"variant": "E12I", "protein stability index": 2.38}
{"variant": "E12S", "protein stability index": 2.44}
{"variant": "E12L", "protein stability index": 1.88}
{"variant": "E12V", "protein stability index": 3.34}
{"variant": "E12C", "protein stability index": 3.46}
{"variant": "E12D", "protein stability index": 1.73}
{"variant": "E12M", "protein stability index": 3.22}
{"variant": "E12Y", "protein stability index": 2.17}
{"variant": "E12Q", "protein stability index": 2.43}
{"variant": "E12A", "protein stability index": 2.15}
{"variant": "E12F", "protein stability index": 1.63}
{"variant": "R4P", "protein stability index": 3.66}
{"variant": "R4M", "protein stability index": 2.98}
{"variant": "R4I", "protein stability index": 2.48}
{"variant": "R4W", "protein stability index": 3.45}
{"variant": "R4Y", "protein stability index": 2.85}
{"variant": "R4Q", "protein stability index": 2.27}
{"variant": "R4V", "protein stability index": 2.01}
{"variant": "R4H", "protein stability index": 3.96}
{"variant": "R4N", "protein stability index": 2.39}
{"variant": "R4K", "protein stability index": 3.12}
{"variant": "R4G", "protein stability index": 3.8}
{"variant": "R4L", "protein stability index": 3.47}
{"variant": "R4T", "protein stability index": 4.46}
